# According to the nanobody polyreactivity screen of Harvey et al. (2022):
# Assay: yeast display, Sf9 membrane polyspecificity reagent, FACS + sequencing; frameworks hold sequencing errors
# Procedure, shortened: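 After 36–48 hours of galactose induction, yeast (Saccharomyces cerevisiae BJ5465) displaying a synthetic nanobody library were stained at 4 °C for 1 hour with 10% biotinylated, detergent-solubilized Sf9 membrane reagent. Streptavidin microbeads enriched the stained cells before FACS sorting into low and high (top ~1%) gates on anti-HA and streptavidin fluorescence. Each clone's polyreactivity label reflects its gate of origin.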
row,Sequence,polyreactivity (PSR sort gate)
1,QVQLVESGGGLVQAGGSLSLICAASGRIYYRYHMGWYRQAPGKERELVATISRSGGSTNYADSVKGRFTISRDNAKNTVYLQMNSLNPEYTAVYYCNALYLSTRSGDYWGQGTQVTVSS,high polyreactivity
2,QVQLVESGGGLVQAGGSLSLICAASGSTSYRYAMGWYRQAPGKERELVAGITRSGGSTYYADSVKGRFTISRDNAKNTVYLQMNSLKPEDTAVYYCAAYYSRQYVGYGYWGQGTQVTVSS,high polyreactivity
3,QVQLVESGGGLVQAGGSLSLICAASRLTFYLYAMGWYRQAPGKERELLAAISYSGGSTYYADSVKGRFTISRDNAKNTVYLQMNSLKPEDTAVYYCNALRAGTDSRRTYGSTYGYWGQGTQVTVSS,high polyreactivity
4,QVQLVESGGGLVQAGGSLSLSCAASARTFYGSAKGWYRQAPGKERELVAAINYSGGRTYYADSVKGRFTISRDNAKNTVYLQMNSLKAEDTAGYYCAAPRASGYYWGQGTQVTVSS,high polyreactivity
5,QVQLVESGGGLVQAGGSLSLSCAASGFTFAFYAMGWYRQAPGKERELVAAISWDGVTTYYADSVKGRFTISRDNAKNTVYLQMNSLKPEDTAVYYCAADYPDYAGSFWPSGMYYWGQGTQVTVSS,low polyreactivity
6,QVQLVESGGGLVQAGGSLSLSCAASGFTVKFYAMGWYRQAPGKERELVATISSRGTSTYYADSVKGRFTISRDNAKNTVYLQMNSLKPEDTAVYYCAAAWFPAYQYRYYYWGQGTQVTVSS,high polyreactivity
7,QVQLVESGGGLVQAGGSLSLSCAASGFTYRLYTMGWYRQAPGKERELVAGISTSGGSTYYADSVKGRFTISRDNAKHTVYLQMNSLKPEDTAVYYCAAQAFTSYDYWGQGTQVTVSS,high polyreactivity
8,QVQLVESGGGLVQAGGSLSLSCAASGGIFFIYTMGWKRQAPGKEREMVAAITSTGDTKYADSVKGRFTISRDNAKTTVYLQMNSLKPEDTAVYYCNKDNGTRGKGYDYWGQGTQVTVSS,low polyreactivity
9,QVQLVESGGGLVQAGGSLSLSCAASGGIFFYYAMGWYRQAPGKEMELVASISYSGGSTYYADSVKGRFTISRDNAKNTVYLQMNSLKTEDTAVYYCAARTHYFPWPWYVWDYDSWGQGTQVTVSS,low polyreactivity
10,QVQLVESGGGLVQAGGSLSLSCAASGLIFDVYAMGWYRKAPGKERELVAVISRGVSTNYPDSVKGRFTISRDNAKNTVYLQMNSLKPEDTAVYYCATDSRGYDYWGQCTQVTVSS,high polyreactivity
11,QVQLVESGGGLVQAGGSLSLSCAASGLTFAKNAMGWYRQAPGKERELVAVITSSGGSTYYADSVKGRFTISRDNAKNTVYLQMNSLKPEDTAVYYCNVAYYDRSRSTGYEYWGQGTQVTVSS,high polyreactivity
12,QVQLVESGGGLVQAGGSLSLSCAASGLTFFGYAIGWYRQAPGKEREVVAAISTSGTRTYYADSVKGRFTISRDNAKNTVYLQMNSLKPEDTAVYYCATVRYQEYDYWGQGTQVTVSS,high polyreactivity
13,QVQLVESGGGLVQAGGSLSLSCAASGLTFYKNAMGWYRQAPGKERELVAVISSSGGSTYYADSVKGRFTISRDHAKNTVYLQMNSLKPEDTAVYYCARDLYTEYRWGRLTYDYWGQGTQVTVSS,low polyreactivity
14,QVQLVESGGGLVQAGGSLSLSCAASGRIFPYNDLGWYRQAPGKERELVADINSGDSTNYADSVKGRFTISRDNAKNTVYLQMNSLKPEDTAVYYCAAGYVRYPGVIDEYWGQGTQVTVSS,low polyreactivity
15,QVQLVESGGGLVQAGGSLSLSCAASGRIFTRYAMGWYRQAPGKERELVAAISYGGGGTYYADSVKGRFTISRDNAKNTVYLQMNSLKPEDTAVYYCATDDPLSQINEHGMDYWGQGTQVTVSS,low polyreactivity
16,QVQLVESGGGLVQAGGSLSLSCAASGRIFTYYAMGWYRQAPGKERELVAAINWGVVTTYYADSVKGRFTISRDNAKNTVYLQMNSLKPEDTAVYYCAADWFAANYYVNPVSALDYWGQGTQVTVSS,low polyreactivity
17,QVQLVESGGGLVQAGGSLSLSCAASGRIIDWNTMGLYRQAPGKERDLDATISWDGGTKYYADSVKGRFTISRDTAKNTVFLQMNSLKPEDTAVYYCNKSPLNFFRFRATYDYWGQGTQVTVSS,low polyreactivity
18,QVQLVESGGGLVQAGGSLSLSCAASGRIYNYAMGWYRQAPGKERELVAAITGRGGSTYYADSVKGRFTISRDNAKNTVYLQMNSLKPEDTAVYYCARAGGPRHDWGQGTQVTVSS,high polyreactivity
19,QVQLVESGGGLVQAGGSLSLSCAASGRNFLRNAMGWYRKAPGKERELVAAIKSGGNTYYADSVKGRFTISRDNAKITVYLQMNSLKPEYTAVYYCADRQYGFASYRMDYWGHGTQVTVSS,high polyreactivity
20,QVQLVESGGGLVQAGGSLSLSCAASGRTFLRYAMGWYRQAPGKERELVAAISWSGGRTYYADSVKGRFTISRDNAKNSVYLQMNSLKAEDTAVYYCNNVVLYGALYYYCGQGTQVTVSS,high polyreactivity
21,QVQLVESGGGLVQAGGSLSLSCAASGRTFSYYAMGWYRQAPGKERELVAAISRSGSITYYADSVKGRFTISRDNAKNTIYLQMNSLKPEDTAVYYCNADSSRRRYSSDYWGQGTQVTVSS,high polyreactivity

row,Sequence,polyreactivity (PSR sort gate)
1,QVQLVESGGGLVQAGGSLSLSCAASGSIFDVNAMGWYRQAPGKERELVAAISDSGGSTYYADSVKGRFTISRDNAKNTVHLQMNSLKAEDTAVYYCNADWSWYNYYDFDYWGQGTQVTVSS,low polyreactivity
2,QVQLVESGGGLVQAGGSLSLSCAASGSIFHPYTMGWYRQAPGKERELVAGISQSSDSTYYADSVKGRFTISRDNAKNTVYLQMNSLKPEDTAVYYCNRDNDWPLSVVEVDYWGQGTQVTVSS,low polyreactivity
3,QVQLVESGGGLVQAGGSLSLSCAASGSIFLRNAMGWYRPAPGKERELVAAITRVGSTYADSVKGRFTISRDNAKNTVYLQMNSLKPEDTAVYYCAAVSGVRSGPWRYDYWGQGTQVTVSS,high polyreactivity
4,QVQLVESGGGLVQAGGSLSLSCAASGSIFPRYTMGSYRQAPGKERELVAAISRSGGSTYYADSVKGRFTISRDNAKNTVYLQMNSLKPADTAVYYCDKSRPSKYDYWGQGTQVTVSS,high polyreactivity
5,QVQLVESGGGLVQAGGSLSLSCAASGSIFQKYTMGWYRQAPRKERELVAAITRSGGSTYYADSVKGRFTISRDNAKNTVYLQMNSLKAEDSAVYYCNKRYIPWAYDYWGQGTQVTVSS,high polyreactivity
6,QVQLVESGGGLVQAGGSLSLSCAASGSIFRINAMGWYRQATGKERELVARISWRAGNTYYADSVKGRFTISRDNAKNTVYLQMNSLKPEDTAVYYCNADYYVTGLYGPGYDYWGQGTKVTVSS,low polyreactivity
7,QVQLVESGGGLVQAGGSLSLSCAASGSIFTHNAMGWYRQAPGKERELVAAISSGGSTNYADSVKGRFTISRDNAKNTVYLQMNSLKPEDTAVYYCAAGTQWYSQVYIYYYGGQGTQVTVSS,low polyreactivity
8,QVQLVESGGGLVQAGGSLSLSCAASGSIFYVNTMGWYRQAHGKERELVADISSGDSTYYADSVKGRFTISRDNAKNTVYFQMNSLKPEDTAVYFCNADVYSWVSGKEGDYWGQGTQVTVSS,low polyreactivity
9,QVQLVESGGGLVQAGGSLSLSCAASGSILFTNAMGWYRQAPGKERELVAAISSGGSTYYADSVKGRFTISRDNAKNTVYLQMNSLKPEDTAVYYCAASDHYRWYVHRWEDPFYYWGQGTQVTLSS,low polyreactivity
10,QVQLVESGGGLVQAGGSLSLSCAASGSNFSENTMGWYRQAPGKKRELVADITSGGSTNYADSVKGRFTISRDNAKNTVYLQMNSLKPEDTAVYYCAADYHGEYDYWGQGTLVTVSS,low polyreactivity
11,QVQLVESGGGLVQAGGSLSLSCAASGSTFAYYAMGWYRQAPGKERELVAGITWTGGSTYYADSVKGRFTISRDNAKNTVYIQMNSLKPEDTAVYYCAVTYPISEFYWGVKDRYDYWGQCTQVTVSS,low polyreactivity
12,QVQLVESGGGLVQAGGSLSLSCAASGSTFGSNAMGWYRQAPAKERELVAAISWSGGRTYYADSVKGRFTISRDNAKNTVYLQMNRLIPEDTAVYYCYARQFRTMGYWGQGTQVNVSS,high polyreactivity
13,QVQLVESGGGLVQAGGSLSLSCAASGSTFSPYAMGWYRQAPGKERELVAAITGSTGSTYYADSVKGRFTISRDNAKNTVYLQMNCLKPEDTAVYYCAAVSSNAGHVSRRRGYYWGQGTQVTVSS,high polyreactivity
14,QVQLVESGGGLVQAGGSLSLSCAASGSTFVINAMGWYRPAPRKERELLAAIRGRCVSTSYADSVKGRFTISRDIAKNTVYLQMNSLKPEDTEVYYCAADSRTGYYYWGQGTQVTVSS,high polyreactivity
15,QVQLVESGGGLVQAGGSLSLSCAASGSTFYGYAMGWYRQAPGKERELVAAITRSGGSTYYADSVKGRFTISRDNAKNTVYLQMNSLTPEDTAVYYCAAERLYYYVYWGQGTQVTVSS,low polyreactivity
16,QVQLVESGGGLVQAGGSLSLSCAASGSTIGPNAMGWYRQAPGKERDLVAAINTRGGSTYYADSVKGRFTISRDHANNTVYLQMNSLKPEDTAVYYCAAEYVVWYLDRFNYWGQGTQVTVSS,high polyreactivity
17,QVQLVESGGGLVQAGGSLSLSCAASGTFYGNTMGWYRQAPGKERELVAVISIDGSTNYADSVKGRFTISRDNAKNTVYLQMNCLKPEDTAVYYCNARNQWRTVGKYDYWGQGTQVSVSS,low polyreactivity
18,QVQLVESGGGLVQAGGSLSLSCAATAFTFTYYAMGWYRQAPGKERELVAAITYSGGTTYYADSVKGRFTISRDNAKNTVYLQMNSLKPEDTAVYYCAAVPYYVLARSFYRYGYWGQGTQVTVSS,low polyreactivity
19,QVQLVESGGGLVQAGGSLSLSCAATGNTFYINNMGWYRQAPGKEREFVAAITWSGGPTYYADSVKGRFTISRDNAKNTVYLQMNSLKPEDTAVYYCAARRSGRWTGWTFYYWGQGTQVTVSS,high polyreactivity
20,QVQLVESGGGLVQAGGSLSLSCAATGSIFLHNAMGWYRQAPGKERELVAVITSRGGSTYYADSVKGRFTISRDNAKNTVYLQMNSLKPEDTAVYYCAAPAYHKRTSRGDYWGQGTQVTVSS,low polyreactivity
